Assay results taken from patent publication US20240190992A1 (UNIVERSITY PUBLIC CORPORATION OSAKA, published 2024).

How the values were obtained:
[1] = target: T1, mouse EpCAM (mouse, UniProt Q99JW5 24-315); assay: living cell immunostaining of KMC07 co-cultured with mouse PA6 cells
T1 construct: whole, on cells; also called EpCAM on the mouse fibroblast cell line PA6
T1 sequence (looked up): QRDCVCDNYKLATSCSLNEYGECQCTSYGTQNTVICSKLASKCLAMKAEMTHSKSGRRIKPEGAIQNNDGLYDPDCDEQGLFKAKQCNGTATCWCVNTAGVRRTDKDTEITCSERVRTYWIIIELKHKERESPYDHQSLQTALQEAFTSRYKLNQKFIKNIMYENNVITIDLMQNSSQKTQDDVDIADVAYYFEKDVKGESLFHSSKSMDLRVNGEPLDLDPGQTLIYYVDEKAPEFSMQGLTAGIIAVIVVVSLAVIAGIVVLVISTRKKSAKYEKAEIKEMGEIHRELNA
From the text: Since it was considered that EpCAM was so specially modified with KMC07 that its expression pattern was changed, expression of EpCAM was confirmed using alive or fixed Triton X-100-treated KMC07 by immunostaining. At this time, the anti-KMC07 antibody 1F9D4 and a commercially available EpCAM antibody were used as primary antibodies. When KMC07 was immunostained as living cells, signals were obtained on the cell membrane of KMC07 and the cell membrane of PA6 with the anti-EpCAM antibody (indicated by the arrow in FIG. 12). The staining pattern of KMC07 was similar to that with 1F9D4. Since the anti-EpCAM antibody is known to cross human, mouse and rat EpCAMs, it is considered that the anti-EpCAM antibody also reacted to the mouse fibroblast cell line PA6.

[2] = target: T2, EpCAM (epithelial cell adhesion molecule) (human, UniProt P16422 24-314); assay: antibody affinity column on KMC07 whole cell extract, silver staining, mass analysis of the eluted band
T2 construct: whole, on cells; also called human EpCAM
T2 sequence (looked up): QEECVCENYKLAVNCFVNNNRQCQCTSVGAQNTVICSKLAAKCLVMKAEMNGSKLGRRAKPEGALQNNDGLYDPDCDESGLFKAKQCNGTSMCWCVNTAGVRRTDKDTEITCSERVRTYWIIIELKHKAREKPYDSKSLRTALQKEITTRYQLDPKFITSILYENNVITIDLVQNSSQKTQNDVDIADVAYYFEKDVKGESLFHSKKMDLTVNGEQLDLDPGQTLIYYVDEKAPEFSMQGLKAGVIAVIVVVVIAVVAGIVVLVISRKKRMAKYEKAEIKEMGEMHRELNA
From the text: To an affinity column, 5 clones of the anti-KMC07 antibody were bound and the KMC07 whole cell extract was flown to react the antibody with the antigen. Thereafter, the antibody was eluted and evaluated by silver staining. […] Among them, the broad band of 75 to 100 kDa (mark 4 in the figure) detected with 1B4G4 was similar to that in FIG. 10, and thus considered to be promising as a candidate antigen.

B1: 1F9D4 (antibody III) (antibody, IgG2b, V domains shown)
VH: EVQLVESGGGLVQPGRSLKLSCAASGFTFSDYNMAWVRQAPKKGLEWVATINYDGISTYYRDSVKGRFTISRDNAKSTLYLQMDSLRSEDTATYYCARHSYVYYALGVPFAYWGQGTLVTVSS
VL: DIQMTQSPSLLSASVGDRVTINCKASQNINKYLNWYQQKLGEAPKLLIYNTNSLQTGIPSRFSGSGSGTDYTLTISSLQPEDFGTYFCFQHNSWPLTFGSGTKLEIK
notes: also called IF9D4; anti-KMC07 antibody 1F9D4
binding result [1]: no binding
binding result [2]: binds
